Results on 34 variants are retold here after the supplement of paper PMC6755084.

B1: F1*; the commonest letter at each place (parent)
chain: GAGACCGCAACTGAAAAGTTGTTATCACTTGTCGTAAGACACTTTGGATGGGTTGAAGTTCTGCACGTAGAAGCAAAAGGC

The variants in the series derive from B1. As to the kind of experiment: fraction ligated after 30 min (ligated reads / total reads); higher = more ligase activity. As to conditions: with F1*sub RNA substrate (template-directed ligation), 42 °C. Summed up: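 Oligo-pool templates underwent PCR amplification, T7 transcription and gel purification to yield ribozyme variants. Gel-separated ligated and unligated bands were converted to complementary DNA with barcoded primers and sequenced on a MiSeq, keeping core bases of quality ≥20. The ratio of ligated reads to total reads gave the fraction ligated for every variant.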
As for GAGACCGCAACTGAAAAGTTGTTATCACTTGTCGTAACAGACTTTGGATGGGTTGAAGTTCTGCACGTAGAAGCAAAAGGC [G38C C40G], the fraction ligated was 0.813.

In the case of GAGACCGCAACTGAAAAGTTGTTATCACTGGTCGTAAGACACTTTGGCTGGGTTGAAGTTCTGCACGTAGAAGCAAAAGGC [T30G A48C], the fraction ligated is 0.761.

For GAGACCGCAACTGAAAAGTTGTTATCATTTGTCGTAAGACACTTTGGAGGGGTTGAAGTTCTGCACGTAGAAGCAAAAGGC [C28T T49G], the fraction ligated turned out to be 0.811.

Turning to GAGACCGCAACTGAAAAGTTGTTATGCCTTGTCGTAAGACACTTTGGATGGGTTGAAGTTCTGCACGTAGAAGCAAAAGGC [C26G A27C], the fraction ligated worked out at 0.782.

Take GAGACCGCAACTGAAAAGTTGTTATCACTTTTCGTAAGACACTTTGGATGGGTTGAGGTTCTGCACGTAGAAGCAAAAGGC [G31T A57G]: the fraction ligated is 0.819.

In the case of GAGACCGCAACTGAAAAGTTGTTATCACTTGTCGGAAGACACTTTGGATGGGTTGATGTTCTGCACGTAGAAGCAAAAGGC [T35G A57T], the fraction ligated was 0.804.

Turning to GAGACCGCAACTGAAAAGTTGTTATCACTTGTCGTAAGACACTTTAGCTGGGTTGAAGTTCTGCACGTAGAAGCAAAAGGC [G46A A48C], the fraction ligated came to 0.675.

For the variant GAGACCGCAACTGAAAAGTTGTTATCGCTTGTCGTAAGACACTTTGGATGGGTTGGAGTTCTGCACGTAGAAGCAAAAGGC [A27G A56G], the fraction ligated was 0.755.

Regarding GAGACCGCAACTGAAAAGTTGTTATCACTTATCGTAAGACACTTTGAATGGGTTGAAGTTCTGCACGTAGAAGCAAAAGGC [G31A G47A], the fraction ligated came out at 0.54.

As to GAGACCGCAACTGAAAAGTTGTTATCACTTGTCGTAAGACAGTTTGCATGGGTTGAAGTTCTGCACGTAGAAGCAAAAGGC [C42G G47C], the fraction ligated turned out to be 0.64.

With GAGACCGCAACTGAAAAGTTGTTATCACTTGACGGAAGACACTTTGGATGGGTTGAAGTTCTGCACGTAGAAGCAAAAGGC [T32A T35G], the fraction ligated was 0.812.

For GAGACCGCAACTGAAAAGTTGTTATCACTTGTCGTAAGACACTTTGTATGGGTTGACGTTCTGCACGTAGAAGCAAAAGGC [G47T A57C], the fraction ligated was 0.0653.

For the variant GAGACCGCAACTGAAAAGTTGTTATCACTTGTCGTAGTACACTTTGGATGGGTTGAAGTTCTGCACGTAGAAGCAAAAGGC [A37G G38T], the fraction ligated worked out at 0.849.

As for GAGACCGCAACTGAAAAGTTGTTATCACTTGTCGTAAGACACATTGTATGGGTTGAAGTTCTGCACGTAGAAGCAAAAGGC [T43A G47T], the fraction ligated was found to be 0.643.

For the variant GAGACCGCAACTGAAAAGTTGTTATCACTTGTCGTAAGACACTTTGGATGGGTTGCTGTTCTGCACGTAGAAGCAAAAGGC [A56C A57T], the fraction ligated was 0.77.

Regarding GAGACCGCAACTGAAAAGTTGTTATCACTTCTCGTAAGACACTTTGGATGGGTTGAGGTTCTGCACGTAGAAGCAAAAGGC [G31C A57G], the fraction ligated turned out to be 0.807.

For GAGACCGCAACTGAAAAGTTGTTATCACTTGTCGTAAGACACATTGGACGGGTTGAAGTTCTGCACGTAGAAGCAAAAGGC [T43A T49C], the fraction ligated came to 0.605.

For GAGACCGCAACTGAAAAGTTGTTATCACTTGTCGTAAGGCACTCTGGATGGGTTGAAGTTCTGCACGTAGAAGCAAAAGGC [A39G T44C], the fraction ligated is 0.849.

In the case of GAGACCGCAACTGAAAAGTTGTTATCCCTTGTCGTAAGACACTTCGGATGGGTTGAAGTTCTGCACGTAGAAGCAAAAGGC [A27C T45C], the fraction ligated was 0.335.

With GAGACCGCAACTGAAAAGTTGTTATCACTTGTCGTAAGACACTTTGGATGGGTAGAAGTTCTGCACGTAGAAGCAAAAGGC [T54A], the fraction ligated turned out to be 0.828.

GAGACCGCAACTGAAAAGTTGTTATCACTTGTCGCTAGACACTTTGGATGGGTTGAAGTTCTGCACGTAGAAGCAAAAGGC [T35C A36T]: the fraction ligated came out at 0.839.

On to GAGACCGCAACTGAAAAGTTGTTATCACTTGTCGTAAGACACTTTGGATGGGTTTACGTTCTGCACGTAGAAGCAAAAGGC [G55T A57C], for which the fraction ligated is 0.717.

On to GAGACCGCAACTGAAAAGTTGTTATCACTTGTCGTGACACACTTTGGATGGGTTGAAGTTCTGCACGTAGAAGCAAAAGGC [A36G G38C], for which the fraction ligated is 0.846.

In the case of GAGACCGCAACTGAAAAGTTGTTATCTCTTGTCGTAAGACACTTTCGATGGGTTGAAGTTCTGCACGTAGAAGCAAAAGGC [A27T G46C], the fraction ligated was determined as 0.796.

With GAGACCGCAACTGAAAAGTTGTTATCTCTTGTCGTAAGACACTTTTGATGGGTTGAAGTTCTGCACGTAGAAGCAAAAGGC [A27T G46T], the fraction ligated worked out at 0.757.

As to GAGACCGCAACTGAAAAGTTGTTATCACTTGTCGCAAGACACATTGGATGGGTTGAAGTTCTGCACGTAGAAGCAAAAGGC [T35C T43A], the fraction ligated was determined as 0.839.

On to GAGACCGCAACTGAAAAGTTGTTATCACTGGTCGTAAGACAATTTGGATGGGTTGAAGTTCTGCACGTAGAAGCAAAAGGC [T30G C42A], for which the fraction ligated was determined as 0.831.

Turning to GAGACCGCAACTGAAAAGTTGTTATCACTTGACGTAAGACGCTTTGGATGGGTTGAAGTTCTGCACGTAGAAGCAAAAGGC [T32A A41G], the fraction ligated was found to be 0.808.

For GAGACCGCAACTGAAAAGTTGTTATCGCTTATCGTAAGACACTTTGGATGGGTTGAAGTTCTGCACGTAGAAGCAAAAGGC [A27G G31A], the fraction ligated worked out at 0.776.

As for GAGACCGCAACTGAAAAGTTGTTATCAATTGTCGTAAGACCCTTTGGATGGGTTGAAGTTCTGCACGTAGAAGCAAAAGGC [C28A A41C], the fraction ligated came to 0.794.

Regarding GAGACCGCAACTGAAAAGTTGTTATCACTGCCGGTAACGGCCTTTGGATGGGTTGAAGTTCTGCACGTAGAAGCAAAAGGC [T30G G31C T32C C33G G38C A39G C40G A41C], the fraction ligated was determined as 0.797.

Turning to GAGACCGCAACTGAAAAGTTGTTATAACTTGTCGTAACACACTTTGGATGGGTTGAAGTTCTGCACGTAGAAGCAAAAGGC [C26A G38C], the fraction ligated turned out to be 0.313.

On to GAGACCGCAACTGAAAAGTTGTTATCACTTGTCGTAAGACACTTTGGATAGGTTGAGGTTCTGCACGTAGAAGCAAAAGGC [G50A A57G], for which the fraction ligated worked out at 0.251.

Turning to GAGACCGCAACTGAAAAGTTGTTATCACTTGTCATAACACACTTTGGATGGGTTGAAGTTCTGCACGTAGAAGCAAAAGGC [G34A G38C], the fraction ligated was 0.825.
